Measurements: the supplement of paper PMC10567573

B1: ATL3 (parent)
chain: YGLQGGMAFLDKRLQVKEHQHEEI
B2: DLC1 (parent)
chain: AEVVKIRDSFSNQNTETKDTKSR

Variants of: B1
Test: protein stability index of a GFP-peptide fusion (GPS, HEK-293T) (PSI 1-6); higher = more stable
Conditions: c terminus: a fixed tail appended
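Further: lentivirally expressed fusions sorted by FACS into six bins by GFP to DsRed ratio, PSI derived from sequencing read proportions per bin multiplied by bin number.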

Variant	protein stability index
YGLQGGMRFLDKRLQVKEHQHEEI [A8R]	1.74
YGLQGGMIFLDKRLQVKEHQHEEI [A8I]	2.71
YGLQGGMNFLDKRLQVKEHQHEEI [A8N]	2.33
YGLQGGMDFLDKRLQVKEHQHEEI [A8D]	3.79
YGLQGGMTFLDKRLQVKEHQHEEI [A8T]	3.38
YGLQGGMPFLDKRLQVKEHQHEEI [A8P]	2.93
YGLQGGMAFLDKRLQVKEIQHEEI [H19I]	2.95
YGLQGGMAFLDKRLQVKEKQHEEI [H19K]	2.25
YGLQGGMAFLDKRLQVKECQHEEI [H19C]	2.31
YGLQGGMAFLDKRLQVKEAQHEEI [H19A]	2.74
YGLQGGMAFLDKRLQVKETQHEEI [H19T]	2.54
YGLQGGMAFLDKRLQVKELQHEEI [H19L]	2.36
YGLQGGMAFLDKRLQVKEGQHEEI [H19G]	2.65
YGLQGGYAFLDKRLQVKEHQHEEI [M7Y]	1.93
YGLQGGNAFLDKRLQVKEHQHEEI [M7N]	2.23
YGLQGGCAFLDKRLQVKEHQHEEI [M7C]	2.48
YGLQGGDAFLDKRLQVKEHQHEEI [M7D]	2.16
YGLQGGFAFLDKRLQVKEHQHEEI [M7F]	3.3
YGLQGGQAFLDKRLQVKEHQHEEI [M7Q]	1.03
YGLQGGMAFLDKRLQVKEHQHEEH [I24H]	3.42
YGLQGGMAFLDKRLQVKEHQHEES [I24S]	2.56
YGLQGGMAFLDKRLQVKEHQHEEE [I24E]	2.29
YGLQGGMAFLDKRLQVKEHQHEED [I24D]	2.33
YGLQGGMAFLDKRLQVKEHQHEEQ [I24Q]	2.14

Variant	protein stability index
YGLQGGMAFLDKRLQVKEHQHEEC [I24C]	3.25
YGLQGGMAFLDKRLQVKEHQHEEV [I24V]	2.5
YGKQGGMAFLDKRLQVKEHQHEEI [L3K]	2.93
YGMQGGMAFLDKRLQVKEHQHEEI [L3M]	2.31
YGLQGGMAFLDKRLQVKEHQEEEI [H21E]	3.27
YGLQGGMAFLDKRLQVKEHQFEEI [H21F]	1.6
YGLQGGMAFLDKRLQVKEHQVEEI [H21V]	2.1
YGLQGGMAFLDKRLQVKEHQKEEI [H21K]	3.21
YGLQGGMAFLDKRLQVKEHQLEEI [H21L]	2.8
YGLQGGMAFYDKRLQVKEHQHEEI [L10Y]	1.68
YGLQGGMAFCDKRLQVKEHQHEEI [L10C]	3.07
YGLQGGMAFPDKRLQVKEHQHEEI [L10P]	3.39
YGLQGGMAFNDKRLQVKEHQHEEI [L10N]	2.05
YGLQGGMAFMDKRLQVKEHQHEEI [L10M]	1.54
YGLQGGMAFGDKRLQVKEHQHEEI [L10G]	1.89
YGLQGGMAFEDKRLQVKEHQHEEI [L10E]	3.82
YGLQGGMAFWDKRLQVKEHQHEEI [L10W]	1.96
YGLQGGMAFTDKRLQVKEHQHEEI [L10T]	2.35
YGLQGGMAFLDKRLQVKEHQHTEI [E22T]	1.9
YGLQGGMAFLDKRLQVKEHQHAEI [E22A]	2.54
YGLQGGMAFLDKRLQVKEHQHCEI [E22C]	2.48
YGLQGGMAFLDKRLQVKEHQHNEI [E22N]	3.19
YGLQGGMAFLDKRLQVKEHQHFEI [E22F]	2.03
YGLQGGMAFLDKRLQVKEHQHQEI [E22Q]	1.75

Variant	protein stability index
YGLQGGMAFLDKRLQVKEHQHLEI [E22L]	2.68
YGLQGGMAFLDKRLQVKEHQHYEI [E22Y]	2.6
YGLQGGMAFLDKRLQVKEHQHPEI [E22P]	2.96
YGLAGGMAFLDKRLQVKEHQHEEI [Q4A]	3.19
YGLRGGMAFLDKRLQVKEHQHEEI [Q4R]	2.67
YGLIGGMAFLDKRLQVKEHQHEEI [Q4I]	2.86
YGLVGGMAFLDKRLQVKEHQHEEI [Q4V]	2.25
YGLWGGMAFLDKRLQVKEHQHEEI [Q4W]	2.66
YGLCGGMAFLDKRLQVKEHQHEEI [Q4C]	3.19
YGLGGGMAFLDKRLQVKEHQHEEI [Q4G]	1.98
YGLLGGMAFLDKRLQVKEHQHEEI [Q4L]	1.75
YGLNGGMAFLDKRLQVKEHQHEEI [Q4N]	3.07
YGLEGGMAFLDKRLQVKEHQHEEI [Q4E]	1.92
YGLQGGMAFLDKRLQVKGHQHEEI [E18G]	3.65
YGLQGGMAFLDKRLQVKDHQHEEI [E18D]	2.19
YGLQGGMAFLDKRLQVKMHQHEEI [E18M]	3.04
YGLQGGMAFLDKRLQVKTHQHEEI [E18T]	2.4
YGLQGGMAFLDKRLQVKHHQHEEI [E18H]	2.48
YGLQGGMAFLDKRLQVKIHQHEEI [E18I]	3.67
YGLQGGMAFLDKWLQVKEHQHEEI [R13W]	1.73
YGLQGGMAFLDKNLQVKEHQHEEI [R13N]	2.87
YGLQGGMAFLDKYLQVKEHQHEEI [R13Y]	1.34
YGLQGGMAFLDKRRQVKEHQHEEI [L14R]	2.48
YGLQGGMAFLDKRQQVKEHQHEEI [L14Q]	1.52

Variant	protein stability index
YGLQGGMAFLDKRKQVKEHQHEEI [L14K]	2.1
YGLQGGMAFLDKRSQVKEHQHEEI [L14S]	2.57
YGLQGGMAFLDKRAQVKEHQHEEI [L14A]	3.51
YGLQGGMAFLDKRMQVKEHQHEEI [L14M]	2.07
YGLQGGMAFLDKRHQVKEHQHEEI [L14H]	2.04
YGLQGGMAFLDKRIQVKEHQHEEI [L14I]	2.63
YGLQGGMAFLDKRFQVKEHQHEEI [L14F]	2.82
YGLQGGMAFLDKRYQVKEHQHEEI [L14Y]	3.4
YGLQGGMAFLDKRWQVKEHQHEEI [L14W]	2.82
YGLQGGMAFLDKRDQVKEHQHEEI [L14D]	2.16
YGLQGGMAFLDKRLQVDEHQHEEI [K17D]	1.54
YGLQGGMAFLDKRLQVTEHQHEEI [K17T]	2.7
YGLQGGMAFLDKRLQVFEHQHEEI [K17F]	2.52
YGLQGGMAFLDKRLQVPEHQHEEI [K17P]	2.82
YGLQGGMAFLDKRLQVIEHQHEEI [K17I]	2.51
YGLQGGMAFLDKRLQVHEHQHEEI [K17H]	2.63
YGLQGGMAFLDKRLQVWEHQHEEI [K17W]	2.2
YGLQGGMAFLDKRLQVMEHQHEEI [K17M]	2.55
YGLQGNMAFLDKRLQVKEHQHEEI [G6N]	2.32
YGLQGCMAFLDKRLQVKEHQHEEI [G6C]	2.21
YGLQGPMAFLDKRLQVKEHQHEEI [G6P]	2.65
YGLQGHMAFLDKRLQVKEHQHEEI [G6H]	1.63
YGLQGYMAFLDKRLQVKEHQHEEI [G6Y]	2.34
YRLQGGMAFLDKRLQVKEHQHEEI [G2R]	3.49

Variant	protein stability index
YPLQGGMAFLDKRLQVKEHQHEEI [G2P]	2.63
YQLQGGMAFLDKRLQVKEHQHEEI [G2Q]	2.11
YFLQGGMAFLDKRLQVKEHQHEEI [G2F]	2.31
YELQGGMAFLDKRLQVKEHQHEEI [G2E]	3.28
YGLQGGMAFLDKRLQVKEHQHEYI [E23Y]	2.76
YGLQGGMAFLDKRLQVKEHQHECI [E23C]	3.04
YGLQGGMAFLDKRLQVKEHQHEMI [E23M]	3.12
YGLQGGMAFLDKRLQVKEHQHEGI [E23G]	3.58
YGLQGGMAFLDKRLQVKEHQHEKI [E23K]	2.43
YGLQGGMAFLDKRLQVKEHQHESI [E23S]	2.41
YGLQGGMAFLDKRLQVKEHQHEAI [E23A]	1.94
YGLQGGMAFLDKRLQVKEHQHEFI [E23F]	2.43
WGLQGGMAFLDKRLQVKEHQHEEI [Y1W]	2.45
LGLQGGMAFLDKRLQVKEHQHEEI [Y1L]	3.38
DGLQGGMAFLDKRLQVKEHQHEEI [Y1D]	5.03
FGLQGGMAFLDKRLQVKEHQHEEI [Y1F]	2.51
RGLQGGMAFLDKRLQVKEHQHEEI [Y1R]	4.07
VGLQGGMAFLDKRLQVKEHQHEEI [Y1V]	3.92
SGLQGGMAFLDKRLQVKEHQHEEI [Y1S]	4.46
KGLQGGMAFLDKRLQVKEHQHEEI [Y1K]	4.26
GGLQGGMAFLDKRLQVKEHQHEEI [Y1G]	4.73
NGLQGGMAFLDKRLQVKEHQHEEI [Y1N]	4.53
QGLQGGMAFLDKRLQVKEHQHEEI [Y1Q]	4.79
AGLQGGMAFLDKRLQVKEHQHEEI [Y1A]	4.57

Variant	protein stability index
YGLQNGMAFLDKRLQVKEHQHEEI [G5N]	2.44
YGLQKGMAFLDKRLQVKEHQHEEI [G5K]	2.4
YGLQEGMAFLDKRLQVKEHQHEEI [G5E]	3.15
YGLQHGMAFLDKRLQVKEHQHEEI [G5H]	2.5
YGLQSGMAFLDKRLQVKEHQHEEI [G5S]	2.25
YGLQIGMAFLDKRLQVKEHQHEEI [G5I]	2.04
YGLQTGMAFLDKRLQVKEHQHEEI [G5T]	3.18
YGLQDGMAFLDKRLQVKEHQHEEI [G5D]	2.34
YGLQYGMAFLDKRLQVKEHQHEEI [G5Y]	2.66
YGLQAGMAFLDKRLQVKEHQHEEI [G5A]	1.74
YGLQGGMAFLDNRLQVKEHQHEEI [K12N]	2.91
YGLQGGMAFLDVRLQVKEHQHEEI [K12V]	2.62
YGLQGGMAFLDTRLQVKEHQHEEI [K12T]	1.79
YGLQGGMAFLDFRLQVKEHQHEEI [K12F]	3.37
YGLQGGMAFLDIRLQVKEHQHEEI [K12I]	3.88
YGLQGGMAFLDGRLQVKEHQHEEI [K12G]	2.22
YGLQGGMAFLDDRLQVKEHQHEEI [K12D]	1.75
YGLQGGMAFLDSRLQVKEHQHEEI [K12S]	2.26
YGLQGGMAFLDKRLWVKEHQHEEI [Q15W]	2.37
YGLQGGMAFLDKRLYVKEHQHEEI [Q15Y]	2.44
YGLQGGMAFLDKRLDVKEHQHEEI [Q15D]	2.4
YGLQGGMAFLDKRLLVKEHQHEEI [Q15L]	2.21
YGLQGGMAFLDKRLRVKEHQHEEI [Q15R]	2.28
YGLQGGMANLDKRLQVKEHQHEEI [F9N]	4.51

Variant	protein stability index
YGLQGGMACLDKRLQVKEHQHEEI [F9C]	4.13
YGLQGGMASLDKRLQVKEHQHEEI [F9S]	4.49
YGLQGGMAFLDKRLQVKEHEHEEI [Q20E]	2.5
YGLQGGMAFLDKRLQVKEHFHEEI [Q20F]	3.31
YGLQGGMAFLDKRLQVKEHRHEEI [Q20R]	1.57
YGLQGGMAFLDKRLQVKEHNHEEI [Q20N]	2.86
YGLQGGMAFLDKRLQWKEHQHEEI [V16W]	2.33
YGLQGGMAFLDKRLQMKEHQHEEI [V16M]	2.42
YGLQGGMAFLDKRLQTKEHQHEEI [V16T]	2.3
YGLQGGMAFLDKRLQCKEHQHEEI [V16C]	2.78
YGLQGGMAFLDKRLQAKEHQHEEI [V16A]	2.7
YGLQGGMAFLIKRLQVKEHQHEEI [D11I]	1.85
YGLQGGMAFLGKRLQVKEHQHEEI [D11G]	2.76
YGLQGGMAFLEKRLQVKEHQHEEI [D11E]	2.9
YGLQGGMAFLSKRLQVKEHQHEEI [D11S]	1.91
YGLQGGMAFLPKRLQVKEHQHEEI [D11P]	2.33
YGLQGGMAFLVKRLQVKEHQHEEI [D11V]	2.84
YGLQGGMAFLQKRLQVKEHQHEEI [D11Q]	1.72
YGLQGGMAFLHKRLQVKEHQHEEI [D11H]	1.61

Variants of: B2
Test: as above
Conditions: c terminus: native

Variant	protein stability index
AAVVKIRDSFSNQNTETKDTKSR [E2A]	1.88
AFVVKIRDSFSNQNTETKDTKSR [E2F]	2.11
AKVVKIRDSFSNQNTETKDTKSR [E2K]	1.81
ACVVKIRDSFSNQNTETKDTKSR [E2C]	2.43
AGVVKIRDSFSNQNTETKDTKSR [E2G]	1.95
ADVVKIRDSFSNQNTETKDTKSR [E2D]	2.99
ALVVKIRDSFSNQNTETKDTKSR [E2L]	1.03
AHVVKIRDSFSNQNTETKDTKSR [E2H]	2.02
WEVVKIRDSFSNQNTETKDTKSR [A1W]	2.76
YEVVKIRDSFSNQNTETKDTKSR [A1Y]	1.79
MEVVKIRDSFSNQNTETKDTKSR [A1M]	2.37
HEVVKIRDSFSNQNTETKDTKSR [A1H]	2.51
PEVVKIRDSFSNQNTETKDTKSR [A1P]	1.72
TEVVKIRDSFSNQNTETKDTKSR [A1T]	2.08
QEVVKIRDSFSNQNTETKDTKSR [A1Q]	3.03
IEVVKIRDSFSNQNTETKDTKSR [A1I]	2.06
NEVVKIRDSFSNQNTETKDTKSR [A1N]	3.03
FEVVKIRDSFSNQNTETKDTKSR [A1F]	2.06
KEVVKIRDSFSNQNTETKDTKSR [A1K]	3.16
CEVVKIRDSFSNQNTETKDTKSR [A1C]	2.19
LEVVKIRDSFSNQNTETKDTKSR [A1L]	2.08
GEVVKIRDSFSNQNTETKDTKSR [A1G]	2.9
SEVVKIRDSFSNQNTETKDTKSR [A1S]	1.75
REVVKIRDSFSNQNTETKDTKSR [A1R]	2.73
DEVVKIRDSFSNQNTETKDTKSR [A1D]	3.12
VEVVKIRDSFSNQNTETKDTKSR [A1V]	1.92
